Series [1] deals with the molecule itself. As to the kind of experiment: crystal structure.
Series [2] concerns the molecule itself. The series can be described thus: SEC-MALS. Background: In gel filtration, larger molecules generally elute earlier.

The source of these data is article PMC6938703 (Science Advances, 2020).

B1: Selenomethionine-substituted dARC1 CA (residues S39 to N205) (domain or fragment, D. melanogaster)
chain: SRGKGNFSACTHSFGGTRDHDVVEEFIGNIETYKDVEGISDENALKGISLLFYGMASTWWQGVRKEATTWKEAIALIREHFSPTKPAYQIYMEFFQNKQDDHDPIDTFVIQKRALLAQLPSGRHDEETELDLLFGLLNIKYRKHISRHSVHTFKDLLEQGRIIEHNNPLE
modifications: selenomethionine in place of methionine
Take B1: the binding result in series [1] is recorded as “binds”.

B2: dARC1 CA F133A (domain or fragment, D. melanogaster)
chain: SRGKGNFSACTHSFGGTRDHDVVEEFIGNIETYKDVEGISDENALKGISLLFYGMASTWWQGVRKEATTWKEAIALIREHFSPTKPAYQIYMEFAQNKQDDHDPIDTFVIQKRALLAQLPSGRHDEETELDLLFGLLNIKYRKHISRHSVHTFKDLLEQGRIIEHNNPLE
B2: in series [2], the binding result is “binds”.
